In IntAct's records for PubMed 16839886:

B1: Guanine nucleotide-binding protein alpha-1 subunit (Saccharomyces cerevisiae), P08539 (parent)
chain: MGCTVSTQTIGDESDPFLQNKRANDVIEQSLQLEKQRDKNEIKLLLLGAGESGKSTVLKQLKLLHQGGFSHQERLQYAQVIWADAIQSMKILIIQARKLGIQLDCDDPINNKDLFACKRILLKAKALDYINASVAGGSDFLNDYVLKYSERYETRRRVQSTGRAKAAFDEDGNISNVKSDTDRDAETVTQNEDADRNNSSRINLQDICKDLNQEGDDQMFVRKTSREIQGQNRRNLIHEDIAKAIKQLWNNDKGIKQCFARSNEFQLEGSAAYYFDNIEKFASPNYVCTDEDILKGRIKTTGITETEFNIGSSKFKVLDAGGQRSERKKWIHCFEGITAVLFVLAMSEYDQMLFEDERVNRMHESIMLFDTLLNSKWFKDTPFILFLNKIDLFEEKVKSMPIRKYFPDYQGRVGDAEAGLKYFEKIFLSLNKTNKPIYVKRTCATDTQTMKFVLSAVTDLIIQQNLKKIGII
partner: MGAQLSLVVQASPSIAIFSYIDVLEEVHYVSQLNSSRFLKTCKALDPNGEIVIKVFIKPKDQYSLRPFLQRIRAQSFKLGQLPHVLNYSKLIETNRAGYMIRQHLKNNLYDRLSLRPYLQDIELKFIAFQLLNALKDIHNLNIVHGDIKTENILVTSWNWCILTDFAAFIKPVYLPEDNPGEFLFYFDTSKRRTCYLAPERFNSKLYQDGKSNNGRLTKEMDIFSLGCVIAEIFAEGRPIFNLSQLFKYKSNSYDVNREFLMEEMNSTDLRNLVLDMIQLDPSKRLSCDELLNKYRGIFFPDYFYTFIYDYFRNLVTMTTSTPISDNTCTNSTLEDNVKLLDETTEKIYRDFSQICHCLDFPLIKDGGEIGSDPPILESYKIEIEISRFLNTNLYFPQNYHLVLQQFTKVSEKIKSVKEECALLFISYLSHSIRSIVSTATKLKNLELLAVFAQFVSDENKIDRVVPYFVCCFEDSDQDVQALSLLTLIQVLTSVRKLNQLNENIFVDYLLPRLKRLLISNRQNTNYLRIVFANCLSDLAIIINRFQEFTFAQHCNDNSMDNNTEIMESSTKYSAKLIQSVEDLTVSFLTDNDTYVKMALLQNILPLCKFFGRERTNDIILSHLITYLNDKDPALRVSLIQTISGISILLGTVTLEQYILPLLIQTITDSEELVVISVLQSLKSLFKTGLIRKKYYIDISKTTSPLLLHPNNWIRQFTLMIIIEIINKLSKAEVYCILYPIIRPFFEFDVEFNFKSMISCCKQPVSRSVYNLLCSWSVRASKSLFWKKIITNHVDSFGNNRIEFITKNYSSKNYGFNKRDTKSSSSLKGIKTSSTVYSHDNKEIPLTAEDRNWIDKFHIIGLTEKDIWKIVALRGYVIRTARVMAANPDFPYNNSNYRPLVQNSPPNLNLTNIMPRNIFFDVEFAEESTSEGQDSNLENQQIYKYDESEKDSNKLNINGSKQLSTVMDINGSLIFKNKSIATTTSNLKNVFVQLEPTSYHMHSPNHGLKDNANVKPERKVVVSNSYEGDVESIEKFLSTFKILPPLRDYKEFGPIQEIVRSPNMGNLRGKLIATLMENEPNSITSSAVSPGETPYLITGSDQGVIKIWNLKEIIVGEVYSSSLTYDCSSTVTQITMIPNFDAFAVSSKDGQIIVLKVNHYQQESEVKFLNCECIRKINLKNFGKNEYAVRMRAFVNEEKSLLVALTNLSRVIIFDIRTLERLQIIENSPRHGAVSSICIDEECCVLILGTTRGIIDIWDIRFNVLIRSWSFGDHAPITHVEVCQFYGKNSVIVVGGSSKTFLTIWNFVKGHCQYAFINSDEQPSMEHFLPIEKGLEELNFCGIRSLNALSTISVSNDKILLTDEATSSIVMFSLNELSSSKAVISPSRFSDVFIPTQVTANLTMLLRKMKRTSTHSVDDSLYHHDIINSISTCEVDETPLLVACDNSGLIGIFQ

Variants of: B1
Conditions: with vps15_yeast VPS15, P22219

effect of a mutation on the interaction	Variant
decreasing interaction	Q323L
